Target: VemH (Streptomyces venezuelae ATCC 10712)

## VemG (enzyme)
  apparent Kd from enzyme activity: initial velocities of venemycin production (HPLC) at constant 0.2 µM VemH and 0.1–8.0 µM VemG, fit with a quadratic binding equation: 5.1 µM

Reference: paper PMC6941969
